Reference: patent US20230143604A1, “QW DOSING OF GIP RECEPTOR AGONIST PEPTIDE COMPOUNDS AND USES THEREOF” (TAKEDA PHARMACEUTICAL COMPANY LIMITED, priority 2020, published 2023)
Starred links: 1 amine or outer side, 2 acyl side, 3 side chain; linkers in the order of their positions; H or OH if unused. Non-standard residues stand in square brackets, D forms with d. Groups on a side chain read outwards from the residue. No end group written: not given here. *: point of attachment. C18 diacid = O=C(O)CCCCCCCCCCCCCCCCC(=O)*; C17 diacid = O=C(O)CCCCCCCCCCCCCCCC(=O)*; γGlu = O=C(O)[C@H](CCC(=O)[*:2])N[*:1]; NMeY = CN[C@@H](Cc1ccc(O)cc1)C(=O)O; AEEA = NCCOCCOCC(=O)O; E1 = not defined here; K1 = not defined here; Aib = CC(C)(N)C(=O)O

T1: full-length human GIPR with an N-terminal FLAG tag (human, UniProt P48546 22-466)
T1 sequence (looked up): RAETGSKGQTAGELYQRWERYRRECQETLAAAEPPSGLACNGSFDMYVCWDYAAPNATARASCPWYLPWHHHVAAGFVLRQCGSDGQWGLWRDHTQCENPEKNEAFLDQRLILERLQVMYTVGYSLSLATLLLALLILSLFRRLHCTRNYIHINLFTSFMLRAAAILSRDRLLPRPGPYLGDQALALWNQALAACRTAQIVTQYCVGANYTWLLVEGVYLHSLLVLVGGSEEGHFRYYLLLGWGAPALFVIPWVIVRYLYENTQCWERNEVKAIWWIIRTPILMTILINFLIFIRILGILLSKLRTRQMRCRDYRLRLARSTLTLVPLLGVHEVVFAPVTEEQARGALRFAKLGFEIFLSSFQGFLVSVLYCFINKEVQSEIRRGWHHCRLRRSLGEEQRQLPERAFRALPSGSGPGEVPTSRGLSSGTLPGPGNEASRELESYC


Legend:
[1] = target: full-length human GLP-1R with an N-terminal FLAG tag (human, UniProt P43220 24-463); assay: cell-based or functional assay
[2] = target: T1, full-length human GIPR with an …; assay: cell-based or functional assay

Binder	Human GLP1R cAMP EC50, HEK293T [1]	Human GIPR cAMP EC50, HEK293T [2]
[NMeY][Aib]EGTFISDYSI[Aib]LDR[Aib]K([AEEA-AEEA-γGlu-γGlu-C18 diacid])A[Aib]NFVNWLLAQSPSSGAPPPS-NH2 [Compound No. 109]	204 nM	0.0004 nM
[NMeY][Aib]EGTFISDYSI[K1]LDR[E1]AQ[Aib]K([AEEA-AEEA-γGlu-γGlu-C18 diacid])FVNWLLAQRG-OH (reading uncertain; also: 'K1' at 13 and 'E1' at 17, not explained) [Compound No. 122]	3.55 nM	0.0008 nM
[NMeY][Aib]EGTFISDYSI[Aib]LDR[Aib]AA[Aib]K([AEEA-AEEA-γGlu-γGlu-C18 diacid])FVNWLLAQSPSSGAPPPS-NH2 [Compound No. 107]	45.7 nM	0.0004 nM
[NMeY][Aib]EGTFISDYSIALDR[Aib]AQ[Aib]K([AEEA-AEEA-γGlu-γGlu-C17 diacid])FVNWLLAQSPG-OH (N-terminus assumed; SMILES CC[C@H](C)[C@H](NC(=O)[C@H](CO)NC(=O)[C@H](Cc1ccc(O)cc1)NC(=O)[C@H](CC(=O)O)NC(=O)[C@H](CO)NC(=O)[C@@H](NC(=O)[C@H](Cc1ccccc1)NC(=O)[C@@H](NC(=O)CNC(=O)[C@H](CCC(=O)O)NC(=O)C(C)(C)NC(=O)[C@H](Cc1ccc(O)cc1)NC)[C@@H](C)O)[C@@H](C)CC)C(=O)N[C@@H](C)C(=O)N[C@@H](CC(C)C)C(=O)N[C@@H](CC(=O)O)C(=O)N[C@@H](CCCNC(=N)N)C(=O)NC(C)(C)C(=O)N[C@@H](C)C(=O)N[C@@H](CCC(N)=O)C(=O)NC(C)(C)C(=O)N[C@@H](CCCCNC(=O)COCCOCCNC(=O)COCCOCCNC(=O)CC[C@H](NC(=O)CC[C@H](NC(=O)CCCCCCCCCCCCCCCC(=O)O)C(=O)O)C(=O)O)C(=O)N[C@@H](Cc1ccccc1)C(=O)N[C@H](C(=O)N[C@@H](CC(N)=O)C(=O)N[C@@H](Cc1c[nH]c2ccccc12)C(=O)N[C@@H](CC(C)C)C(=O)N[C@@H](CC(C)C)C(=O)N[C@@H](C)C(=O)N[C@@H](CCC(N)=O)C(=O)N[C@@H](CO)C(=O)N1CCC[C@H]1C(=O)NCC(=O)O)C(C)C) [Compound No. 125]	20 nM	0.0005 nM
[NMeY][Aib]EGTFISDYSIAK([AEEA-AEEA-γGlu-C17 diacid])DR[Aib]AQ[Aib]NFVNWLLAQS-OH (N-terminus assumed; SMILES CC[C@H](C)[C@H](NC(=O)[C@H](CO)NC(=O)[C@H](Cc1ccc(O)cc1)NC(=O)[C@H](CC(=O)O)NC(=O)[C@H](CO)NC(=O)[C@@H](NC(=O)[C@H](Cc1ccccc1)NC(=O)[C@@H](NC(=O)CNC(=O)[C@H](CCC(=O)O)NC(=O)C(C)(C)NC(=O)[C@H](Cc1ccc(O)cc1)NC)[C@@H](C)O)[C@@H](C)CC)C(=O)N[C@@H](C)C(=O)N[C@@H](CCCCNC(=O)COCCOCCNC(=O)COCCOCCNC(=O)CC[C@H](NC(=O)CCCCCCCCCCCCCCCC(=O)O)C(=O)O)C(=O)N[C@@H](CC(=O)O)C(=O)N[C@@H](CCCNC(=N)N)C(=O)NC(C)(C)C(=O)N[C@@H](C)C(=O)N[C@@H](CCC(N)=O)C(=O)NC(C)(C)C(=O)N[C@@H](CC(N)=O)C(=O)N[C@@H](Cc1ccccc1)C(=O)N[C@H](C(=O)N[C@@H](CC(N)=O)C(=O)N[C@@H](Cc1c[nH]c2ccccc12)C(=O)N[C@@H](CC(C)C)C(=O)N[C@@H](CC(C)C)C(=O)N[C@@H](C)C(=O)N[C@@H](CCC(N)=O)C(=O)N[C@@H](CO)C(=O)O)C(C)C) [Compound No. 10]	37.2 nM	0.0002 nM
YXEGTFISDYSIXXDRXAQXDFVEWLLAQRG (N-methyl Tyr 1; Aib at 2,13,17,20; Lys(G5-C18 diacid) at 14; C-terminal OH) [Compound No. 108]	41.7 nM	0.0002 nM
YXEGTFISDYSIALDRXAQXDFVEWLLAQRG (N-methyl Tyr 1; Aib at 2,20; Lys(G5-C18 diacid) at 17; C-terminal OH) [Compound No. 115]	40.7 nM	0.0003 nM
YXEGTFISDYSIAXDRXAQKDFVEWLLAQRG (N-methyl Tyr 1; Aib at 2,17; Lys(G5-C18 diacid) at 14; 'K1' at 20 and 'E1' at 24 as printed; C-terminal OH) [Compound No. 121]	89.1 nM	0.0005 nM
[NMeY][Aib]EGTFISDYSI[Aib]LDR[Aib]AQ[Aib]K([AEEA-AEEA-γGlu-γGlu-C18 diacid])FVEWLLAQKG-OH (N-terminus assumed; SMILES CC[C@H](C)[C@H](NC(=O)[C@H](Cc1ccccc1)NC(=O)[C@@H](NC(=O)CNC(=O)[C@H](CCC(=O)O)NC(=O)C(C)(C)NC(=O)[C@H](Cc1ccc(O)cc1)NC)[C@@H](C)O)C(=O)N[C@@H](CO)C(=O)N[C@@H](CC(=O)O)C(=O)N[C@@H](Cc1ccc(O)cc1)C(=O)N[C@@H](CO)C(=O)N[C@H](C(=O)NC(C)(C)C(=O)N[C@@H](CC(C)C)C(=O)N[C@@H](CC(=O)O)C(=O)N[C@@H](CCCNC(=N)N)C(=O)NC(C)(C)C(=O)N[C@@H](C)C(=O)N[C@@H](CCC(N)=O)C(=O)NC(C)(C)C(=O)N[C@@H](CCCCNC(=O)COCCOCCNC(=O)COCCOCCNC(=O)CC[C@H](NC(=O)CC[C@H](NC(=O)CCCCCCCCCCCCCCCCC(=O)O)C(=O)O)C(=O)O)C(=O)N[C@@H](Cc1ccccc1)C(=O)N[C@H](C(=O)N[C@@H](CCC(=O)O)C(=O)N[C@@H](Cc1c[nH]c2ccccc12)C(=O)N[C@@H](CC(C)C)C(=O)N[C@@H](CC(C)C)C(=O)N[C@@H](C)C(=O)N[C@@H](CCC(N)=O)C(=O)N[C@@H](CCCCN)C(=O)NCC(=O)O)C(C)C)[C@@H](C)CC) [Compound No. 110]	100 nM	0.0003 nM
[NMeY][Aib]EGTFISDYSIALDR[Aib]AQ[Aib]K([AEEA-AEEA-γGlu-γGlu-C18 diacid])FVEWLLAQSPG-OH (N-terminus assumed; SMILES CC[C@H](C)[C@H](NC(=O)[C@H](CO)NC(=O)[C@H](Cc1ccc(O)cc1)NC(=O)[C@H](CC(=O)O)NC(=O)[C@H](CO)NC(=O)[C@@H](NC(=O)[C@H](Cc1ccccc1)NC(=O)[C@@H](NC(=O)CNC(=O)[C@H](CCC(=O)O)NC(=O)C(C)(C)NC(=O)[C@H](Cc1ccc(O)cc1)NC)[C@@H](C)O)[C@@H](C)CC)C(=O)N[C@@H](C)C(=O)N[C@@H](CC(C)C)C(=O)N[C@@H](CC(=O)O)C(=O)N[C@@H](CCCNC(=N)N)C(=O)NC(C)(C)C(=O)N[C@@H](C)C(=O)N[C@@H](CCC(N)=O)C(=O)NC(C)(C)C(=O)N[C@@H](CCCCNC(=O)COCCOCCNC(=O)COCCOCCNC(=O)CC[C@H](NC(=O)CC[C@H](NC(=O)CCCCCCCCCCCCCCCCC(=O)O)C(=O)O)C(=O)O)C(=O)N[C@@H](Cc1ccccc1)C(=O)N[C@H](C(=O)N[C@@H](CCC(=O)O)C(=O)N[C@@H](Cc1c[nH]c2ccccc12)C(=O)N[C@@H](CC(C)C)C(=O)N[C@@H](CC(C)C)C(=O)N[C@@H](C)C(=O)N[C@@H](CCC(N)=O)C(=O)N[C@@H](CO)C(=O)N1CCC[C@H]1C(=O)NCC(=O)O)C(C)C) [Compound No. 119]	50.1 nM	0.0009 nM
YXEGTFISDYSIAXDRXAQXDFVNWLLAQSPG (N-methyl Tyr 1; Aib at 2,17,20; Lys(G5-C20 diacid) at 14; C-terminal OH) [Compound No. 111]	14.1 nM	0.0001 nM
YXEGTFISDYSIAXDRXAQXNFVNWLLAQSPG (N-methyl Tyr 1; Aib at 2,17,20; Lys(G5-C18 diacid) at 14; C-terminal OH) [Compound No. 114]	11.7 nM	0.0001 nM
YXEGTFISDYSIAXDRXAQRDFVEWLLAQSPG (N-methyl Tyr 1; Aib at 2,17; Lys(G5-C18 diacid) at 14; C-terminal OH) [Compound No. 120]	15.8 nM	0.0003 nM
YXEGTFISDYSIALDRXAQXDFVNWLLAQSPG (N-methyl Tyr 1; Aib at 2,20; Lys(G5-C18 diacid) at 17; C-terminal OH) [Compound No. 113]	13.5 nM	0.0003 nM
YXEGTFISDYSIAXDRXAQXDFVEWLLAQSPG (N-methyl Tyr 1; Aib at 2,17,20; Lys(G5-C18 diacid) at 14; C-terminal OH) [Compound No. 118]	91.2 nM	0.0007 nM
YXEGTFISDYSIAXDRXAQKDFVEWLLAQSPG (N-methyl Tyr 1; Aib at 2,17; Lys(G5-C18 diacid) at 14; 'K1' at 20 and 'E1' at 24 as printed; C-terminal OH) [Compound No. 124]	123 nM	0.0003 nM
[NMeY][Aib]EGTFISDYSIALDR[Aib]AQ[Aib]K([GGPAPAPgE-C18 diacid])FVNWLLAQSPG-OH [Compound No. 117]	44.7 nM	0.002 nM
[NMeY][Aib]EGTFISDYSIA[K1]DRA[E1]Q[Aib]K([AEEA-AEEA-γGlu-γGlu-C18 diacid])FVNWLLAQRG-OH (reading uncertain; also: 'K1' at 14 and 'E1' at 18, not explained) [Compound No. 123]	74.1 nM	0.0005 nM
